Experimental data taken from the supplement of paper PMC9112550, “Optimization of the antimicrobial peptide Bac7 by deep mutational scanning” (BMC Biology, 2022).

What follows are sequences tested on Escherichia coli TOP10 (assay: shrunken log2 fold change of peptide-encoding DNA abundance (4.5 h post-induction vs induction); higher = less antimicrobial activity (less host growth inhibition)). Conditions: time post-induction: 4.5 h; library: site-saturation at positions 5, 18, 19, 20.
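Note: peptides expressed intracellularly from a pBAD plasmid library in pooled LB shake-flask culture, induced with 0.3% L-arabinose, DNA abundance read by NGS, three biological replicates, DESeq2 with apeglm shrinkage.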

Row | Sequence | shrunken log2 fold change
1 | RRIRERPPRLPRPRPRPEADPRP | 0.0032
2 | RRIRERPPRLPRPRPRPECAPRP | 0.586
3 | RRIRERPPRLPRPRPRPEDQPRP | -0.0394
4 | RRIRERPPRLPRPRPRPEDYPRP | 0.00235
5 | RRIRERPPRLPRPRPRPEEAPRP | 0.353
6 | RRIRERPPRLPRPRPRPEEFPRP | -0.0217
7 | RRIRERPPRLPRPRPRPEFQPRP | -0.0353
8 | RRIRERPPRLPRPRPRPEHKPRP | -0.0265
9 | RRIRERPPRLPRPRPRPEIKPRP | -0.0374
10 | RRIRERPPRLPRPRPRPEITPRP | -0.045
11 | RRIRERPPRLPRPRPRPEKFPRP | -0.287
12 | RRIRERPPRLPRPRPRPELCPRP | 0.511
13 | RRIRERPPRLPRPRPRPELEPRP | 0.276
14 | RRIRERPPRLPRPRPRPELIPRP | 0.0254
15 | RRIRERPPRLPRPRPRPELVPRP | 0.0791
16 | RRIRERPPRLPRPRPRPEMNPRP | 0.0387
17 | RRIRERPPRLPRPRPRPENVPRP | -0.0141
18 | RRIRERPPRLPRPRPRPEQHPRP | -0.0123
19 | RRIRERPPRLPRPRPRPERIPRP | -0.0271
20 | RRIRERPPRLPRPRPRPESFPRP | 0.0447
21 | RRIRERPPRLPRPRPRPESKPRP | -0.145
22 | RRIRERPPRLPRPRPRPESWPRP | 0.343
23 | RRIRERPPRLPRPRPRPEYLPRP | -1.13
24 | RRIRERPPRLPRPRPRPEYMPRP | -0.0257
25 | RRIRERPPRLPRPRPRPEYRPRP | -0.00146

Row | Sequence | shrunken log2 fold change
26 | RRIRERPPRLPRPRPRPFAWPRP | 0.143
27 | RRIRERPPRLPRPRPRPFCMPRP | -0.126
28 | RRIRERPPRLPRPRPRPFDGPRP | 0.000346
29 | RRIRERPPRLPRPRPRPFDHPRP | 0.0195
30 | RRIRERPPRLPRPRPRPFDQPRP | -0.0377
31 | RRIRERPPRLPRPRPRPFIKPRP | -0.16
32 | RRIRERPPRLPRPRPRPFIMPRP | -0.0895
33 | RRIRERPPRLPRPRPRPFIRPRP | -0.854
34 | RRIRERPPRLPRPRPRPFPFPRP | -0.629
35 | RRIRERPPRLPRPRPRPFPHPRP | -0.15
36 | RRIRERPPRLPRPRPRPFPSPRP | -0.0393
37 | RRIRERPPRLPRPRPRPFQVPRP | -0.212
38 | RRIRERPPRLPRPRPRPFSAPRP | -0.161
39 | RRIRERPPRLPRPRPRPFSRPRP | -0.0038
40 | RRIRERPPRLPRPRPRPFTMPRP | -0.585
41 | RRIRERPPRLPRPRPRPFVEPRP | 0.0315
42 | RRIRERPPRLPRPRPRPFVQPRP | -0.386
43 | RRIRERPPRLPRPRPRPFVWPRP | -0.0465
44 | RRIRERPPRLPRPRPRPFWNPRP | -0.51
45 | RRIRERPPRLPRPRPRPFYSPRP | -0.795
46 | RRIRERPPRLPRPRPRPGCEPRP | -0.00695
47 | RRIRERPPRLPRPRPRPGDMPRP | -0.116
48 | RRIRERPPRLPRPRPRPGEFPRP | 0.033
49 | RRIRERPPRLPRPRPRPGEKPRP | -0.00142
50 | RRIRERPPRLPRPRPRPGEYPRP | -0.267

Row | Sequence | shrunken log2 fold change
51 | RRIRERPPRLPRPRPRPGFSPRP | -0.196
52 | RRIRERPPRLPRPRPRPGFWPRP | 0.407
53 | RRIRERPPRLPRPRPRPGGGPRP | 0.855
54 | RRIRERPPRLPRPRPRPGGRPRP | 0.27
55 | RRIRERPPRLPRPRPRPGKDPRP | -0.24
56 | RRIRERPPRLPRPRPRPGKEPRP | 0.0125
57 | RRIRERPPRLPRPRPRPGKIPRP | 0.139
58 | RRIRERPPRLPRPRPRPGMWPRP | 0.178
59 | RRIRERPPRLPRPRPRPGNMPRP | -0.0808
60 | RRIRERPPRLPRPRPRPGQEPRP | 0.0214
61 | RRIRERPPRLPRPRPRPGRGPRP | 0.436
62 | RRIRERPPRLPRPRPRPGTGPRP | 0.229
63 | RRIRERPPRLPRPRPRPGTMPRP | 0.0721
64 | RRIRERPPRLPRPRPRPGWQPRP | 0.0683
65 | RRIRERPPRLPRPRPRPGYDPRP | -0.191
66 | RRIRERPPRLPRPRPRPHAAPRP | -0.0217
67 | RRIRERPPRLPRPRPRPHAEPRP | -0.0335
68 | RRIRERPPRLPRPRPRPHENPRP | -0.365
69 | RRIRERPPRLPRPRPRPHFGPRP | -0.0492
70 | RRIRERPPRLPRPRPRPHFNPRP | -0.744
71 | RRIRERPPRLPRPRPRPHGMPRP | 0.0601
72 | RRIRERPPRLPRPRPRPHGRPRP | 0.0279
73 | RRIRERPPRLPRPRPRPHHMPRP | -0.381
74 | RRIRERPPRLPRPRPRPHKMPRP | -0.701
75 | RRIRERPPRLPRPRPRPHLEPRP | -0.0328
